We go through one substance from PMC10572825.

The test addresses CXCL12 (Homo sapiens) (UniProt P48061). The experiment in a line: isothermal fluorescence titration. Particulars: FITC-labelled tenascin-C.

Chain of CXCL12 (Homo sapiens) (P48061 22-89): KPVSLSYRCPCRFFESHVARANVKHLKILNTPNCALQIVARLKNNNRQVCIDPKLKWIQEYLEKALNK

Take Tenascin-C, Q80YX1: the Kd – broadly, the free concentration of one partner at which half of the binding sites on the other are occupied at equilibrium, for simple one-to-one binding – stood at 1010 nM.
